Experimental findings from patent US20210079037A1 (TECHNISCHE UNIVERSIT T M NCHEN, published 2021) are described below.

The target in experiment [1] is T1, recombinant human serum albumin (HSA) produced in rice (Sigma-Aldrich) (human, UniProt P02768 25-609).
T1 construct: also called recombinant HSA
The experiment in a line: ELISA, capture of the ABD fusion on HSA-coated plate. The procedure:
(§1) ELISA was performed at ambient temperature in a 96-well Maxisorb microtiter plate (Nunc, Langenselbold, Germany).
(§2) Then, the wells were blocked with […] Roti-Block (Carl Roth, Karlsruhe, Germany) diluted 1:10 in ddH₂O for 1 h and washed three times with PBS containing 0.1% v/v Tween 20 (PBS/T). After that, the purified ProtL^Caf-ABD fusion protein from Example 11 was applied in a dilution series in PBS/T and incubated for 1 h to effect complex formation between the ABD moiety and the pre-adsorbed HSA. The wells were then washed three times with PBS/T and incubated with 50 μl of a 1:1000 dilution in PBS/T of the aforementioned mouse anti-6×His Ig-AP conjugate.

The target in experiment [2] is T2, mouse anti-6×His antibody alkaline phosphatase (AP) conjugate (Arigo Biolaboratories).
T2 construct: also called mouse anti-6×His Ig-AP conjugate; Ig-AP conjugate
The experiment in a line: ELISA: ProtL-ABD in a dilution series captured on coated HSA, mouse anti-6xHis Ig-AP conjugate (1:1000) applied, kept in daylight, AP activity as dA/dt [left graph]. On the procedure: as §1, §2
For orientation: In an ELISA, binding on a coated surface is turned into a signal by an enzyme label.

Experiment [3] has as its target T2, mouse anti-6×His antibody alkaline …. In words: ELISA: ProtL-ABD in a dilution series captured on coated HSA, mouse anti-6xHis Ig-AP conjugate (1:1000) applied, UV light of 365 nm for 5 min before the washes, AP activity as dA/dt [left graph]. On the procedure:
as §1, §2

T1 sequence (P02768 25-609 limits assumed): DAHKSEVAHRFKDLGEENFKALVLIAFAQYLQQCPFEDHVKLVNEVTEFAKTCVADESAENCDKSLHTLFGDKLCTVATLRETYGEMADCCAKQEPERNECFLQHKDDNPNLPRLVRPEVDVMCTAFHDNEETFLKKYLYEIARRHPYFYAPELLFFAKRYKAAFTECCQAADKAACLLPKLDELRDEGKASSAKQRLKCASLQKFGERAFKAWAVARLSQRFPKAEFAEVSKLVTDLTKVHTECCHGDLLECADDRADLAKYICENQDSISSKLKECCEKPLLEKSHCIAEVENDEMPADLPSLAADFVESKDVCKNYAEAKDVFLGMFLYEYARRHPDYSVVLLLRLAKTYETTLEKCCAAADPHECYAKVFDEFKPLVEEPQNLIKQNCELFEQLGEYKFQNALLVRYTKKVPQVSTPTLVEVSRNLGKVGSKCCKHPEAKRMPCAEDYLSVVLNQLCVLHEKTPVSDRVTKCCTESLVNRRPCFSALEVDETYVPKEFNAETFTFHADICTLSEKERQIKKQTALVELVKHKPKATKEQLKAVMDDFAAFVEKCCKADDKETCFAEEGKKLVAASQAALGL

B1: ProtL-ABD fusion protein (other)
chain: MKEEVTIKVNLIFADGKTQTAEFKGTFEEATAKAYAYADLLAKENGEYTADLEDGGNTINIKFAGGAVDANSLAEAKVLANRELDKYGVSDYYKNLINNAKTVEGVKALIDEILAALP
notes: also called protein L-ABD fusion protein; unmodified ProtL-ABD
Regarding B1, the binding result in experiment [1] is reported as “binds”. In addition, the “EC50 (read off the curve)” value in experiment [2] and in experiment [3] was approximately 40 nM throughout.
